Measurements: PMC6017454, “A Xylenol Orange-Based Screening Assay for the Substrate Specificity of Flavin-Dependent para-Phenol Oxidases” (Molecules : A Journal of Synthetic Chemistry and Natural …, 2018)

Assays:
purified protein [1] = substrate: COc1cc(CO)ccc1O; test: purified protein; format: biochemical, Penicillium simplicissimum; details: 50 mM potassium phosphate, pH 7.5, 25 °C, O2 as electron acceptor
purified protein [2] = substrate: COc1cc(CO)ccc1O; test: purified protein; format: biochemical, Rhodococcus jostii; details: 50 mM potassium phosphate, pH 7.5, 25 °C, O2 as electron acceptor

B1: His-VAO (vanillyl alcohol oxidase) (Penicillium simplicissimum) (protein)
chain: MSKTQEFRPLTLPPKLSLSDFNEFIQDIIRIVGSENVEVISSKDQIVDGSYMKPTHTHDPHHVMDQDYFLASAIVAPRNVADVQSIVGLANKFSFPLWPISIGRNSGYGGAAPRVSGSVVLDMGKNMNRVLEVNVEGAYCVVEPGVTYHDLHNYLEANNLRDKLWLDVPDLGGGSVLGNAVERGVGYTPYGDHWMMHSGMEVVLANGELLRTGMGALPDPKRPETMGLKPEDQPWSKIAHLFPYGFGPYIDGLFSQSNMGIVTKIGIWLMPNPRGYQSYLITLPKDGDLKQAVDIIRPLRLGMALQNVPTIRHILLDAAVLGDKRSYSSRTEPLSDEELDKIAKQLNLGRWNFYGALYGPEPIRRVLWETIKDAFSAIPGVKFYFPEDTPENSVLRVRDKTMQGIPTYDELKWIDWLPNGAHLFFSPIAKVSGEDAMMQYAVTKKRCQEAGLDFIGTFTVGMREMHHIVCIVFNKKDLIQKRKVQWLMRTLIDDCAANGWGEYRTHLAFMDQIMETYNWNNSSFLRFNEVLKNAVDPNGIIAPGKSGVWPSQYSHVTWKL
notes: N-terminal 6xHis tag plus single Gly, tag kept; codon-optimised, E. coli BL21; covalent FAD; VAO predominantly octameric
- Km (purified protein [1]): 129 ± 15 µM
- kcat (purified protein [1]): 2.5 ± 0.1 s⁻¹
- kcat/Km (purified protein [1]): 19000 M⁻¹ s⁻¹

B2: EUGO-His (eugenol oxidase) (Rhodococcus jostii RHA1) (protein)
chain: MTRTLPPGVSDERFDAALQRFRDVVGDKWVLSTADELEAFRDPYPVGAAEANLPSAVVSPESTEQVQDIVRIANEYGIPLSPVSTGKNNGYGGAAPRLSGSVIVKTGERMNRILEVNEKYGYALLEPGVTYFDLYEYLQSHDSGLMLDCPDLGWGSVVGNTLDRGVGYTPYGDHFMWQTGLEVVLPQGEVMRTGMGALPGSDAWQLFPYGFGPFPDGMFTQSNLGIVTKMGIALMQRPPASQSFLITFDKEEDLEQIVDIMLPLRINMAPLQNVPVLRNIFMDAAAVSKRTEWFDGDGPMPAEAIERMKKDLDLGFWNFYGTLYGPPPLIEMYYGMIKEAFGKIPGARFFTHEERDDRGGHVLQDRHKINNGIPSLDELQLLDWVPNGGHIGFSPVSAPDGREAMKQFEMVRNRANEYNKDYAAQFIIGLREMHHVCLFIYDTAIPEAREEILQMTKVLVREAAEAGYGEYRTHNALMDDVMATFNWGDGALLKFHEKIKDALDPNGIIAPGKSGIWSQRFRGQNL
notes: E. coli TOP10; covalent FAD; EUGO dimeric
- Km (purified protein [2]): 47 ± 5 µM
- kcat (purified protein [2]): 8 ± 0.2 s⁻¹
- kcat/Km (purified protein [2]): 170000 M⁻¹ s⁻¹
